Results published in paper PMC6748613.
Each block holds one substance with its values, some of them ahead of it.

Assays:
Experiment in all cases: AUC
[1] = target: bH1 Fab variant W^H33-D^H98-G^H99-S^L30b
[2] = target: bH1 Fab variant W^H33-M^H98-D^H99-R^L30b
[3] = target: bH1 Fab variant W^H33-W^H98-D^H99-R^L30b
[4] = target: bH1 Fab variant W^H33-W^H98-G^H99-S^L30b
[5] = target: bH1 Fab variant Y^H33-D^H98-G^H99-R^L30b
[6] = target: bH1 Fab variant Y^H33-F^H98-G^H99-S^L30b
[7] = target: bH1 Fab variant Y^H33-M^H98-G^H99-S^L30b
[8] = target: bH1 Fab variant Y^H33-M^H98-M^H99-S^L30b
[9] = target: bH1 Fab variant Y^H33-W^H98-G^H99-S^L30b

Substance: bH1 Fab variant W^H33-W^H98-G^H99-S^L30b
- Kd [4]: 2.68 mM
- dimer % at 1 mg/mL [4]: 1.4%

Substance: bH1 Fab variant Y^H33-D^H98-G^H99-R^L30b
- Kd [5]: 8.94 mM

Substance: bH1 Fab variant Y^H33-M^H98-M^H99-S^L30b
- Kd [8]: 19.9 mM

Substance: bH1 Fab variant Y^H33-W^H98-G^H99-S^L30b
- Kd [9]: 5.73 mM
- dimer % at 1 mg/mL [9]: 2.8%

The next lines start with the values.

- Kd [1]: 1470 mM
- dimer % at 1 mg/mL [1]: 1.2%
Substance: bH1 Fab variant W^H33-D^H98-G^H99-S^L30b

- Kd [2]: 3.98 mM
Substance: bH1 Fab variant W^H33-M^H98-D^H99-R^L30b

- Kd [3]: 1.33 mM
- dimer % at 1 mg/mL [3]: 1.2%
Substance: bH1 Fab variant W^H33-W^H98-D^H99-R^L30b

- Kd [6]: 1.29 mM
- dimer % at 1 mg/mL [6]: 1%
Substance: bH1 Fab variant Y^H33-F^H98-G^H99-S^L30b

- Kd [7]: 179 mM
- dimer % at 1 mg/mL [7]: 1.4%
Substance: bH1 Fab variant Y^H33-M^H98-G^H99-S^L30b
